# Reference: publication PMC9319256, “Human Enzyme PADI4 Binds to the Nuclear Carrier Importin α3” (Cells, 2022)
# Key:
# [1] = biological target: NLS1-PADI4 peptide (human); assay: translational diffusion NMR (DOSY); 100 µM peptide; 100 mM sodium phosphate, pH 7.0; 10 °C; dioxane as reference
# [2] = biological target: human importin α3 (Impα3), intact (human); assay: BLI; BLItz; His-tagged Impα3 or ΔImpα3 immobilised on His-tag biosensors at 0.3 µM; peptides 1-7 µM; manufacturer's buffer; 25 °C; pseudo-first-order plots; apparent
# [3] = biological target: ΔImpα3, truncated importin α3 lacking the importin β-binding (IBB) domain (human); assay: as above
# [4] = biological target: human importin α3 (Impα3), intact (human); assay: ITC; PADI4 or peptide (100 µM) in the syringe titrated into importin (10 µM) in the cell; 20 mM Tris pH 7.5, 5 mM TCEP, 150 mM NaCl, 5% glycerol; 25 °C; single-site model
# [5] = biological target: ΔImpα3, truncated importin α3 lacking the importin β-binding (IBB) domain (human); assay: as above
# [6] = biological target: human importin α3 (Impα3), intact (human); assay: as above; remark: listed apart in the source
# [7] = biological target: PADI4 (peptidyl-arginine deiminase 4), intact (human) (UniProt Q9UM07); assay: other fluorescence titration; importin species 0-25 µM added to 3 µM PADI4; 20 mM Tris pH 7.5, 5 mM TCEP, 150 mM NaCl, 5% glycerol; 25 °C; fluorescence at 330 nm
# Sequence of PADI4 (peptidyl-arginine deiminase 4), intact (human) (Q9UM07 whole entry): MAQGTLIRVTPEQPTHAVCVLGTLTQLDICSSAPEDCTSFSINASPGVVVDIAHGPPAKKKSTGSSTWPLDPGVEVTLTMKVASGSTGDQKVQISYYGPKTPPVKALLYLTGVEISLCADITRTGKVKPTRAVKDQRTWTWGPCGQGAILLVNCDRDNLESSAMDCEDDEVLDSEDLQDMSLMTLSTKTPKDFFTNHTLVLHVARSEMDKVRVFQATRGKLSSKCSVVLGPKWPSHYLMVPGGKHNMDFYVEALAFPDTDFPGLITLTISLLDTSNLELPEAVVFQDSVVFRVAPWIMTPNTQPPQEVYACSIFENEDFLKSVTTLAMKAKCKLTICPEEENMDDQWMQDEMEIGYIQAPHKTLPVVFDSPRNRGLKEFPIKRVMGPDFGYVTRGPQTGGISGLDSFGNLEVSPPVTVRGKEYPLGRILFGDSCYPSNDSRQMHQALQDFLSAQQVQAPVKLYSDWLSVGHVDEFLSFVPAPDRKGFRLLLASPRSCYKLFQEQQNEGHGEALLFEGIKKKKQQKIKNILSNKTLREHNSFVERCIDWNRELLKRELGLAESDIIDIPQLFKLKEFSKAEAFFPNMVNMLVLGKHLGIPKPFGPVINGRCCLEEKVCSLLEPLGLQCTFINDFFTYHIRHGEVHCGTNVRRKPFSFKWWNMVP
# Sequence of PADI4 (peptidyl-arginine deiminase 4), intact (Q9UM07 whole entry): as above
Substance,stoichiometry N [1],Kd [2] [µM],koff [2] [s⁻¹],kon [2] [M⁻¹ s⁻¹],Kd [3] [µM],koff [3] [s⁻¹],kon [3] [M⁻¹ s⁻¹],Ka [4] [M⁻¹],Kd [4] [µM],dH [4] [kJ/mol],stoichiometry N [4],Ka [5] [M⁻¹],Kd [5] [µM],dH [5] [kJ/mol],stoichiometry N [5],Kd [6] [µM],Kd [7] [µM]
NLS1-PADI4 peptide,6,18,0.0685,3700,4,0.046,11000,230000,4.3,-89.1,1.24,650000,1.5,-36.4,1.22,4.4,
"PADI4 (peptidyl-arginine deiminase 4), intact (from UniProt Q9UM07 1-663) (enzyme)",,,,,,,,210000,4.8,-274,0.97,780000,1.3,-161,0.84,,
"human importin α3 (Impα3), intact (natural protein)",,,,,,,,,,,,,,,,,3.9
"ΔImpα3, truncated importin α3 lacking the importin β-binding (IBB) domain (domain or fragment)",,,,,,,,,,,,,,,,,6
